Reference: paper PMC7958122, “Insulin-Like Growth Factor Binding Protein-3 Exerts Its Anti-Metastatic Effect in Aerodigestive Tract Cancers by Disrupting the Protein Stability of Vimentin” (Cancers, 2021)

Biological target: T1, recombinant IGFBP-3 protein (rBP3) of the in vitro binding assays with vimentin domains (human, UniProt P17936 28-291)
T1 construct: IGFBP-3, human, recombinant protein; by the pull-down methods it may be the purified His-IGFBP-3; source: recombinant
Test: pull-down; in vitro binding: glutathione-agarose-bound GST-vimentin (full-length, domains or deletion mutants) incubated with purified recombinant IGFBP-3 or its C-terminal domain; TNE binding buffer, 4 °C; Western blot
Conditions: both partners purified

T1 sequence (P17936 28-291): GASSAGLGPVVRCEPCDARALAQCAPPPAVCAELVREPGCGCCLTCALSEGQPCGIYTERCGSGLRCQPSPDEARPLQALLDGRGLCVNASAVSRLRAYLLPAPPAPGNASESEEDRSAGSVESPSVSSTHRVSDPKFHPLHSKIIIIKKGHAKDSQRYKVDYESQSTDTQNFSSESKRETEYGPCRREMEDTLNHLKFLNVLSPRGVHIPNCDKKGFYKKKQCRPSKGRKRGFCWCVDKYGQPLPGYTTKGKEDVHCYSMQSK

Binder	binding result
GST-tagged head domain of vimentin (1-101 aa) (domain or fragment, human, UniProt P08670 1-101, looked up, vimentin, human, head domain, residues 1-101; source: bacterial expression (pGEX-4T-2), recombinant) MSTRSVSSSSYRRMFGGPGTASRPSSSRSYVTTSTRTYSLGSALRPSTSRSLYASSPGGVYATRSSAVRLRSSVPGVRLLQDSVDFSLADAINTEFKNTRT	binds
GST-tagged vimentin coiled-coil domain deletion mutant ΔCC (1-101 linked with 411-467 aa) (domain or fragment, human, UniProt P08670 1-466, looked up, vimentin, human, head domain (1-101) ligated to tail domain (411-467 as printed); source: bacterial expression (pGEX-4T-2), recombinant) MSTRSVSSSSYRRMFGGPGTASRPSSSRSYVTTSTRTYSLGSALRPSTSRSLYASSPGGVYATRSSAVRLRSSVPGVRLLQDSVDFSLADAINTEFKNTRTISLPLPNFSSLNLRETNLDSLPLVDTHSKRTLLIKTVETRDGQVINETSQHHDDLE	binds
